T1: human IL3 (human, UniProt P08700 20-152)
T1 sequence: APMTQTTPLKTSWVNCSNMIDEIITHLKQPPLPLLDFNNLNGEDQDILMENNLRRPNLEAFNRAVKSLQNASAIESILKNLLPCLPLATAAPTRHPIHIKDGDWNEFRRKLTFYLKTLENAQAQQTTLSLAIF


What follows are binders tested against T1, human IL3 (assay: cell-based or functional assay).

| Binder | Inhibitory activity (block of IL-3 induced downregulation of CD131 on primary human basophils; chimeric P8C11 normalized to 100%) |
| --- | --- |
| HC3 × LC3 (antibody, V domains shown) VH: QVQLVQSGAEMKKPGASVKVACKGSGFTFTDYALHWVRQAPGQRLEWMGLISTYYGDTTYNQRFKGRVTITRDTSASTAYMELSSLRSEDTAIYYCVITTVAGTDAMDYWGQGTLVTVSS VL: DIQMTQSPSSLSASVGDRVTITCHASQNINVWLSWYQQKPGKVPKLLIYKASNLHTGVPSRFSGSGSGTDFTLTISSLQPEDVATYYCQQGYSYPYTFGGGTKLEIK | 6% |
| HC1 × LC1 (antibody, V domains shown) VH: QVQLVQSGAEVKKPGASVKVSCKASGFTFTDYALHWVRQAPGQRLEWMGLISTYYGDTTYNQRFKGRVTITRDTSASTAYMELSSLRSEDTAVYYCVITTVAGTDAMDYWGQGTLVTVSS VL: DIQMTQSPSSVSASVGDRVTITCHASQNINVWLSWYQQKPGKAPKLLIYKASNLHTGVPSRFSGSGSGTDFTLTISSLQPEDFATYYCQQGYSYPYTFGGGTKLEIK | 2% |
| HC2 × LC3 (antibody, V domains shown) VH: QVQLVQSGSELKKPGASVKVSCKASGFTFTDYALHWVRQAPGQGLEWMGLISTYYGDTTYNQRFKGRFVFSLDTSVSTAYLQISSLKAEDTAVYYCVITTVAGTDAMDYWGQGTLVTVSS VL: DIQMTQSPSSLSASVGDRVTITCHASQNINVWLSWYQQKPGKVPKLLIYKASNLHTGVPSRFSGSGSGTDFTLTISSLQPEDVATYYCQQGYSYPYTFGGGTKLEIK | 0.5% |
| HC2 × LC2 (antibody, V domains shown) VH: QVQLVQSGSELKKPGASVKVSCKASGFTFTDYALHWVRQAPGQGLEWMGLISTYYGDTTYNQRFKGRFVFSLDTSVSTAYLQISSLKAEDTAVYYCVITTVAGTDAMDYWGQGTLVTVSS VL: DIQMTQSPSSLSASVGDRVTITCHASQNINVWLSWYQQKPGKAPKLLIYKASNLHTGVPSRFSGSGSGTDFTFTISSLQPEDIATYYCQQGYSYPYTFGGGTKLEIK | 0.5% |
| HC1 × LC3 (antibody, V domains shown) VH: QVQLVQSGAEVKKPGASVKVSCKASGFTFTDYALHWVRQAPGQRLEWMGLISTYYGDTTYNQRFKGRVTITRDTSASTAYMELSSLRSEDTAVYYCVITTVAGTDAMDYWGQGTLVTVSS VL: DIQMTQSPSSLSASVGDRVTITCHASQNINVWLSWYQQKPGKVPKLLIYKASNLHTGVPSRFSGSGSGTDFTLTISSLQPEDVATYYCQQGYSYPYTFGGGTKLEIK | 2% |
| HC1 × LC2 (antibody, V domains shown) VH: QVQLVQSGAEVKKPGASVKVSCKASGFTFTDYALHWVRQAPGQRLEWMGLISTYYGDTTYNQRFKGRVTITRDTSASTAYMELSSLRSEDTAVYYCVITTVAGTDAMDYWGQGTLVTVSS VL: DIQMTQSPSSLSASVGDRVTITCHASQNINVWLSWYQQKPGKAPKLLIYKASNLHTGVPSRFSGSGSGTDFTFTISSLQPEDIATYYCQQGYSYPYTFGGGTKLEIK | 2% |
| HC3 × LC1 (antibody, V domains shown) VH: QVQLVQSGAEMKKPGASVKVACKGSGFTFTDYALHWVRQAPGQRLEWMGLISTYYGDTTYNQRFKGRVTITRDTSASTAYMELSSLRSEDTAIYYCVITTVAGTDAMDYWGQGTLVTVSS VL: DIQMTQSPSSVSASVGDRVTITCHASQNINVWLSWYQQKPGKAPKLLIYKASNLHTGVPSRFSGSGSGTDFTLTISSLQPEDFATYYCQQGYSYPYTFGGGTKLEIK | 6% |
| HC3 × LC2 (antibody, V domains shown) VH: QVQLVQSGAEMKKPGASVKVACKGSGFTFTDYALHWVRQAPGQRLEWMGLISTYYGDTTYNQRFKGRVTITRDTSASTAYMELSSLRSEDTAIYYCVITTVAGTDAMDYWGQGTLVTVSS VL: DIQMTQSPSSLSASVGDRVTITCHASQNINVWLSWYQQKPGKAPKLLIYKASNLHTGVPSRFSGSGSGTDFTFTISSLQPEDIATYYCQQGYSYPYTFGGGTKLEIK | 6% |
| HC2 × LC1 (antibody, V domains shown) VH: QVQLVQSGSELKKPGASVKVSCKASGFTFTDYALHWVRQAPGQGLEWMGLISTYYGDTTYNQRFKGRFVFSLDTSVSTAYLQISSLKAEDTAVYYCVITTVAGTDAMDYWGQGTLVTVSS VL: DIQMTQSPSSVSASVGDRVTITCHASQNINVWLSWYQQKPGKAPKLLIYKASNLHTGVPSRFSGSGSGTDFTLTISSLQPEDFATYYCQQGYSYPYTFGGGTKLEIK | 0.5% |

Biological target: T1, human IL3
Assay: cell-based or functional assay
Remark: another data set of the same source

| Binder | Inhibitory activity (block of IL-3 induced downregulation of CD131 on primary human basophils; chimeric P8C11 normalized to 100%) |
| --- | --- |
| HC3.MMH × muLC (antibody, V domains shown) VH: QVQLQQSGAEMVRPGVSVKIACKGSGFTFTDYALHWVKQSHAKSLEWIGLISTYYGDTTYNQRFKGRVTITRDTSASTAYMELSSLRSEDTAIYYCVITTVAGTDAMDYWGQGTLVTVSS VL: DIQMNQSPSSLSASLGDTITITCHASQNINVWLSWYQQKPGNIPKLLIYKASNLHTGVPSRFSGSGSGTGFTLTISSLQPEDIATYYCQQGYSYPYTFGGGTKLEIK | 4% |

Biological target: T1, human IL3
Assay: cell-based or functional assay
Remark: another data set of the same source

| Binder | Inhibitory activity (block of IL-3 induced downregulation of CD131 on primary human basophils; chimeric P8C11 normalized to 100%) |
| --- | --- |
| HC10 × LC2 (antibody, V domains shown) VH: QVQLVQSGAEMKKPGASVKVACKGSGFTFTDYALHWVRQAPGQRLEWMGLISTYYGDTTYNQRFKGRVTITVDKSASTAYMELSSLRSEDTAIYYCVITTVAGTDAMDYWGQGTLVTVSS VL: DIQMTQSPSSLSASVGDRVTITCHASQNINVWLSWYQQKPGKAPKLLIYKASNLHTGVPSRFSGSGSGTDFTFTISSLQPEDIATYYCQQGYSYPYTFGGGTKLEIK | 40% |
| HC7 × LC2 (antibody, V domains shown) VH: QVQLVQSGAEVKKPGASVKVACKGSGFTFTDYALHWVRQAPGQRLEWMGLISTYYGDTTYNQRFKGRVTMTVDKSSSTAYMELSSLRSEDTAVYYCVITTVAGTDAMDYWGQGTLVTVSS VL: DIQMTQSPSSLSASVGDRVTITCHASQNINVWLSWYQQKPGKAPKLLIYKASNLHTGVPSRFSGSGSGTDFTFTISSLQPEDIATYYCQQGYSYPYTFGGGTKLEIK | 100% |
| HC9 × LC2 (antibody, V domains shown) VH: QVQLVQSGAEMKKPGASVKVACKGSGFTFTDYALHWVRQAPGQRLEWMGLISTYYGDTTYNQRFKGRVTMTVDKSASTAYMELSSLRSEDTAIYYCVITTVAGTDAMDYWGQGTLVTVSS VL: DIQMTQSPSSLSASVGDRVTITCHASQNINVWLSWYQQKPGKAPKLLIYKASNLHTGVPSRFSGSGSGTDFTFTISSLQPEDIATYYCQQGYSYPYTFGGGTKLEIK | 50% |
| HC8 × LC2 (antibody, V domains shown) VH: QVQLVQSGAEMKKPGASVKVSCKASGFTFTDYALHWVRQAPGQRLEWMGLISTYYGDTTYNQRFKGRVTMTVDKSSSTAYMELSSLRSEDTAIYYCVITTVAGTDAMDYWGQGTLVTVSS VL: DIQMTQSPSSLSASVGDRVTITCHASQNINVWLSWYQQKPGKAPKLLIYKASNLHTGVPSRFSGSGSGTDFTFTISSLQPEDIATYYCQQGYSYPYTFGGGTKLEIK | 25% |

Biological target: T1, human IL3
Assay: cell-based or functional assay
Remark: another data set of the same source

| Binder | Inhibitory activity (block of IL-3 induced downregulation of CD131 on primary human basophils; chimeric P8C11 normalized to 100%) |
| --- | --- |
| HC15 × LC2 (antibody, V domains shown) VH: QVQLVQSGAEVKKPGASVKVACKASGFTFTDYALHWVRQAPGQRLEWMGLISTYYGDTTYNQRFKGRVTMTADKSTSTAYMELSSLRSEDTAVYYCVITTVAGTDAMDYWGQGTLVTVSS VL: DIQMTQSPSSLSASVGDRVTITCHASQNINVWLSWYQQKPGKAPKLLIYKASNLHTGVPSRFSGSGSGTDFTFTISSLQPEDIATYYCQQGYSYPYTFGGGTKLEIK | 8% |
| HC13 × LC2 (antibody, V domains shown) VH: QVQLVQSGAEVKKPGASVKVACKGSGFTFTDYALHWVRQAPGQRLEWMGLISTYYGDTTYNQRFKGRVTMTADKSSSTAYMELSSLRSEDTAVYYCVITTVAGTDAMDYWGQGTLVTVSS VL: DIQMTQSPSSLSASVGDRVTITCHASQNINVWLSWYQQKPGKAPKLLIYKASNLHTGVPSRFSGSGSGTDFTFTISSLQPEDIATYYCQQGYSYPYTFGGGTKLEIK | 25% |
| HC12 × LC2 (antibody, V domains shown) VH: QVQLVQSGAEVKKPGASVKVACKGSGFTFTDYALHWVRQAPGQRLEWMGLISTYYGDTTYNQRFKGRVTMTVDKSTSTAYMELSSLRSEDTAVYYCVITTVAGTDAMDYWGQGTLVTVSS VL: DIQMTQSPSSLSASVGDRVTITCHASQNINVWLSWYQQKPGKAPKLLIYKASNLHTGVPSRFSGSGSGTDFTFTISSLQPEDIATYYCQQGYSYPYTFGGGTKLEIK | 100% |
| HC14 × LC2 (antibody, V domains shown) VH: QVQLVQSGAEVKKPGASVKVSCKGSGFTFTDYALHWVRQAPGQRLEWMGLISTYYGDTTYNQRFKGRVTMTADKSTSTAYMELSSLRSEDTAVYYCVITTVAGTDAMDYWGQGTLVTVSS VL: DIQMTQSPSSLSASVGDRVTITCHASQNINVWLSWYQQKPGKAPKLLIYKASNLHTGVPSRFSGSGSGTDFTFTISSLQPEDIATYYCQQGYSYPYTFGGGTKLEIK | 25% |
| HC11 × LC2 (antibody, V domains shown) VH: QVQLVQSGAEVKKPGASVKVACKGSGFTFTDYALHWVRQAPGQRLEWMGLISTYYGDTTYNQRFKGRVTMTADKSTSTAYMELSSLRSEDTAVYYCVITTVAGTDAMDYWGQGTLVTVSS VL: DIQMTQSPSSLSASVGDRVTITCHASQNINVWLSWYQQKPGKAPKLLIYKASNLHTGVPSRFSGSGSGTDFTFTISSLQPEDIATYYCQQGYSYPYTFGGGTKLEIK | 25% |
